Experimental data published in the supplement of paper PMC12042874.
± gives the uncertainty stated by the source.

Test: amyloid nucleation score (Sup35N fusion, yeast selection) (log enrichment); library NNK3; higher = more nucleation; inactive = no reads after selection
How it was run: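 Nucleation score: DiMSum log enrichment of output over input reads, centred on the mode score of non-aggregating sequences. Only sequences with at least 100 input reads were kept. Reads came from Illumina sequencing of plasmid inserts before and after 7 days of growth at 30°C without adenine and uracil, in psi-negative yeast expressing Sup35N fused to peptides of 20 random codons after 24 hours of induction with 100 μM copper sulfate.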

| Substance | amyloid nucleation score |
| --- | --- |
| VVDFSTYWY | inactive |
| VVDKILITINRSLLLSGADN | inactive |
| VVGIKV | inactive |
| VVIIK | inactive |
| VVLAMTHSYRNFKMFRDHYH | 0.957 ± 0.12 |
| VVLDYVSYAVIHGWEM | inactive |
| VVLFKISSYPRHIHFGFHLL | inactive |
| VVLSWT | -0.477 ± 1.1 |
| VVMACGFLGKRGDSGCLLVM | inactive |
| VVMWQRRLRYGPKERNNGKV | -0.067 ± 0.4 |
| VVMYIRANPTDIYSYTLQPR | 1.56 ± 0.12 |
| VVSLRQLRW | inactive |
| VVTASYWLLCLSLYFSAS | inactive |
| VVTNG | 0.408 ± 0.17 |
| VVWASV | inactive |
| VVWDGMQIGSWPQ | inactive |
| VVWLDNKDVLTWHARCLCPM | inactive |
| VVWLQFGMEVKSSFSMTSKT | inactive |
| VVWNMYKFKACWYRDVTPLF | inactive |
| VVYDPVICDGWALDGGVGAR | inactive |
| VWETKMTLLINSKNYFVGFW | inactive |
| VWGIRFLLVWNRGHAGYSLN | inactive |
| VWKIHYCFDVFIMV | inactive |
| VWLFVSSMEYTNGTYQHHMM | inactive |

| Substance | amyloid nucleation score |
| --- | --- |
| VWLILRFMWAVVRTNRSNLD | inactive |
| VWMIPISCKSQFLFEWYGHY | 1.12 ± 0.18 |
| VWQYNDGSYCVVMYVSSSDY | 1.06 ± 0.19 |
| VWRHQDLGARAKAASHG | inactive |
| VWSFGLLVS | -0.17 ± 1.1 |
| VWTLAAVYYIIVRYSHKIRK | inactive |
| VWVFKTNFVFRVQLGHSLGC | 1.46 ± 0.094 |
| VYCPELLSRCGQVGSTCCDR | inactive |
| VYDMCGNLQWAL | inactive |
| VYEGFQVWNDGLPDLVRFGV | inactive |
| VYIRSFRSCTWRSLPMRIRY | inactive |
| VYKIMVTFPSISMPSRSSGL | inactive |
| VYLHYLTREVSDYLMWWFRV | inactive |
| VYLKLSILFSCAFSN | inactive |
| VYLRHWAIYVIESVLQGSCR | inactive |
| VYLRSISFVRTRQMVWCLLP | inactive |
| VYRDFSGYFRLGWFDMSSVR | inactive |
| VYRNVHMFSRWQDFNPLGAR | inactive |
| VYTMVTMIDGIELFRWNLWS | inactive |
| VYVCYIL | 1.73 ± 0.077 |
| VYVLFRLCNNRFRKELIATL | inactive |
| VYVRG | inactive |
| VYYKVKEHVGWVFVSVVCIV | inactive |
| WAKNHPDLIMLIFADTISYN | 2.31 ± 0.058 |

| Substance | amyloid nucleation score |
| --- | --- |
| WALTRLRAPPF | inactive |
| WCAISICQLLKRQWYLGSYV | inactive |
| WCARSTWKISIEY | inactive |
| WCDYMKNPCSFEGKFLWRWP | inactive |
| WCFGYLHMNIV | inactive |
| WCFMQQFVFTLGRKFRIWRI | inactive |
| WCGEKVCCRAQMSLTIKSLL | inactive |
| WCHLFLFMCTSSLFSGWDDG | inactive |
| WCLHNLVSMLRDQTSRVSFP | inactive |
| WCQDATMYNPSYY | inactive |
| WDLLTKLHVKIKFLDRGMMS | inactive |
| WDSMMYNMVKDDSGLWNHVE | inactive |
| WDWWN | inactive |
| WFFMNVLASENKYFVLCCKA | inactive |
| WFLVNRDWFLGCQVTGEVLI | inactive |
| WFNLCYFG | 2.5 ± 0.069 |
| WFPSKYIATMFCLQVFLVKP | inactive |
| WFVNL | 1.38 ± 0.15 |
| WGCEIRANLLITSWVSVTVG | inactive |
| WGLGFFAI | inactive |
| WGLTMLRESRVCCKSYNKQG | inactive |
| WGNLCQSGALCCQEGC | inactive |
| WGRISNAHG | inactive |
| WGSEFIDTKFA | inactive |

| Substance | amyloid nucleation score |
| --- | --- |
| WGWMSTIKIVG | inactive |
| WHCLTVFILKYEVGFCSSLR | inactive |
| WHSKKLRICHLGCFVQTDWV | inactive |
| WHWCCDSNMMRVIFTWFFSL | inactive |
| WIAVPRVGTWVGEKMS | inactive |
| WIPAMVYFEHNTS | inactive |
| WIRIVRELGRSVR | inactive |
| WISFFT | inactive |
| WKLGLK | inactive |
| WKSPVYAYVWNSGPFRRQGK | inactive |
| WKWVRRYVRATIRSYSKDLD | inactive |
| WKYWIWVFMNATYMDCVGML | inactive |
| WLFSTSI | inactive |
| WLHINGVLYIFSMAGSALSV | inactive |
| WLIFELIVSELSTRHHKALD | inactive |
| WLLTM | inactive |
| WLMIMDFKCLSPRTRSWRRM | inactive |
| WLNVLNSYSDRSYLKETRLR | inactive |
| WLRLIA | inactive |
| WLVPR | inactive |
| WLWTLALNFTYKYFMCGKYK | inactive |
| WMFVRGDAGLRFVGG | 1.05 ± 0.21 |
| WMMRD | inactive |
| WMNGISKL | inactive |

| Substance | amyloid nucleation score |
| --- | --- |
| WMYKTWHRI | inactive |
| WNMSVRRISYEDL | inactive |
| WPSGFCYR | inactive |
| WQHSRSLDTSACCPT | inactive |
| WQQAYRDRTSRSYWQPICAT | inactive |
| WQTKIGYSGRLFDRTLGDAK | inactive |
| WQWVM | inactive |
| WRVFVIRYKKSMYAETGKVK | inactive |
| WRVLFSILSVTAVWATYAGL | inactive |
| WRVYVFNVLETYMLRVKWVG | inactive |
| WSFCGLYLNI | 1.62 ± 0.095 |
| WSILL | inactive |
| WSINAIGQTHINSEVLGVLF | inactive |
| WSISIGYFP | inactive |
| WSKVSHPYSALYSIMDRYT | inactive |
| WSSVFESLQSLMIIFRRLAD | inactive |
| WSTLKMVRVCYGASFSNVYM | inactive |
| WSWGTG | inactive |
| WSYREVHRRDLGLLSNGTCW | inactive |
| WSYTAKGVW | inactive |
| WTEGST | inactive |
| WTFNLFFNFRTFRLCCRKLV | 0.938 ± 0.096 |
| WTQAGQIRMRKRSR | inactive |
| WVCIW | 0.178 ± 0.72 |

| Substance | amyloid nucleation score |
| --- | --- |
| WVCLWVIVLYHIPVLNKLLS | inactive |
| WVCTYLTRFGRITGALRMDV | inactive |
| WVGGPQNQRPANWTFGMWFH | inactive |
| WVHVRPKHCTSGLVTKFANM | inactive |
| WVLDQRNSLSKCKLG | inactive |
| WVLEE | inactive |
| WVLLRWAGY | -0.611 ± 2.4 |
| WVYWRKSSILSTHRNIVKHW | inactive |
| WWMYSALGMYTDHEFACDVA | inactive |
| WWVIVGSAYVFDISIHFSSP | 1.24 ± 0.096 |
| WWVRQNVRWVLACVDFSTFS | inactive |
| WYACRIQ | 0.517 ± 0.23 |
| WYAKWKVN | inactive |
| WYGITEIP | inactive |
| WYGVSACYGWHNVAHSSRSL | 1.22 ± 0.18 |
| WYLIFGCRASWGSWR | -0.039 ± 0.61 |
| WYRHGIVEYDAIIWDESARR | inactive |
| WYRLLYKVEYNFKGWSVFVR | inactive |
| WYTIRDYRAFLSVM | inactive |
| YAFHKTDSCCVMCVRGPAPT | inactive |
| YAFLELFNFVLNLDLGVGYL | inactive |
| YAGFCPRGRSPKRG | inactive |
| YAIVGSRVVRLRSKNRRNLS | inactive |
| YALCPVRPGSQQGKLGVTFL | 0.503 ± 0.45 |

| Substance | amyloid nucleation score |
| --- | --- |
| YALMLVFERHSRAARSVGMG | inactive |
| YAMCIISIAFPLTL | inactive |
| YANCLDNIPDRVQDMYSCFS | inactive |
| YANQHSPEHQRLSSRLVGTN | inactive |
| YASYFSWEDCHG | inactive |
| YAVYRTPFVSKLAMFQLVQ | -1.04 ± 1.9 |
| YCAALGSSY | inactive |
| YCAGWFFMFSV | 0.586 ± 0.2 |
| YCFSWNHR | 0.116 ± 0.66 |
| YCKEGLQQDPIFSKFYEHLG | inactive |
| YCNMVWT | inactive |
| YCQVGINWFYGAGMKGYILS | inactive |
| YCSCNEGGLDPSLTMTL | inactive |
| YCSLMMMVYRDFFTLVNASV | inactive |
| YCWYRQMDNSRGGYYMWVS | inactive |
| YDAIVAPFSFSTLAVVITYG | inactive |
| YDCKLSRAVLRGV | inactive |
| YDCWFPHLSECLQLDTIFKA | inactive |
